Experimental data: article PMC9359528, “DNA binding by the Rad9A subunit of the Rad9-Rad1-Hus1 complex”
Residue numbers refer to the chain shown, from its start.

What was measured:
Test in all cases: EMSA; EMSA: 20 mM Tris-HCl pH 7.6, 80 mM NaCl, 1 mM DTT, 1 mM EDTA, 1.5% glycerol, 200 ng/ml poly dI/dC, 50 ug/ml BSA, 10 nM DNA; 6% native PAGE in 50 mM Tris-borate
[1] = target: T1, TM Rad9A 1-266 (Homo sapiens, UniProt Q99638 1-266, K11A;K15A;R22A); settings: protein: recombinant; tags: His; label: 5'-fluorescein (6-carboxyfluorescein) on HC40; blunt
T1 sequence: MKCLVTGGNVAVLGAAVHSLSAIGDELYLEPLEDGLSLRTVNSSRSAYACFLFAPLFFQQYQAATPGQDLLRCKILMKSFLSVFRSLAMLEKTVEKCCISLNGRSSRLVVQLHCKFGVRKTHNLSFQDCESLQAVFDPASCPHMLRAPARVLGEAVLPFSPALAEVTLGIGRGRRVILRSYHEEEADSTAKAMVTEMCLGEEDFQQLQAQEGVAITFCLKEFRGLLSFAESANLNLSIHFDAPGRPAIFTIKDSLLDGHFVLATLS

[2] = target: T2, DM Rad9A 94-266 (Homo sapiens, UniProt Q99638 94-266, R150A;R223A); settings: protein: recombinant; tags: His; label: 5'-fluorescein (6-carboxyfluorescein) on HC40; blunt
T2 sequence: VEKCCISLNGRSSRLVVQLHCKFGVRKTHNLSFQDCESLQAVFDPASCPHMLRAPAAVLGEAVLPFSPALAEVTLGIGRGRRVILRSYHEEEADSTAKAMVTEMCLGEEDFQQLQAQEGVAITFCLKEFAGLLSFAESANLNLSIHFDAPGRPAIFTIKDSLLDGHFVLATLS

[3] = target: T3, WT Rad9A 94-266 (Homo sapiens, UniProt Q99638 94-266); settings: protein: recombinant; tags: His; label: 5'-fluorescein (6-carboxyfluorescein) on HC40; blunt
T3 sequence: T2 sequence with A57R, A130R

[4] = target: T4, TM Rad9A 1-133 (Homo sapiens, UniProt Q99638 1-133, K11A;K15A;R22A); settings: protein: recombinant; tags: His; label: 5'-fluorescein (6-carboxyfluorescein) on HC40; blunt
T4 sequence: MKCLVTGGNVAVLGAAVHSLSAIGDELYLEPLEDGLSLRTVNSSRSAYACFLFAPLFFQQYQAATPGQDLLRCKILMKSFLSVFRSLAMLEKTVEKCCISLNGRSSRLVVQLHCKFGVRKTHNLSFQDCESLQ

[5] = target: T5, QM1 Rad9A 1-266 (Homo sapiens, UniProt Q99638 1-266, K11A;K15A;R22A;K78A); settings: protein: recombinant; tags: His; label: 5'-fluorescein (6-carboxyfluorescein) on HC40; blunt
T5 sequence: T1 sequence with K78A

[6] = target: T6, K220A Rad9A 94-266 (Homo sapiens, UniProt Q99638 94-266, K220A); settings: protein: recombinant; tags: His; label: 5'-fluorescein (6-carboxyfluorescein) on HC40; blunt
T6 sequence: T2 sequence with A57R, K127A, A130R

[7] = target: T7, R223A Rad9A 94-266 (Homo sapiens, UniProt Q99638 94-266, R223A); settings: protein: recombinant; tags: His; label: 5'-fluorescein (6-carboxyfluorescein) on HC40; blunt
T7 sequence: T2 sequence with A57R

[8] = target: T8, WT Rad9A 1-133 (Homo sapiens, UniProt Q99638 1-133); settings: protein: recombinant; tags: N-terminal His; label: 5'-fluorescein (6-carboxyfluorescein) on HC40; blunt
T8 sequence: T4 sequence with A11K, A15K, A22R

[9] = target: T9, LD Rad9A 94-266 (Homo sapiens, UniProt Q99638 94-266, del160-163); settings: protein: recombinant; tags: His; label: 5'-fluorescein (6-carboxyfluorescein) on HC40; blunt
T9 sequence: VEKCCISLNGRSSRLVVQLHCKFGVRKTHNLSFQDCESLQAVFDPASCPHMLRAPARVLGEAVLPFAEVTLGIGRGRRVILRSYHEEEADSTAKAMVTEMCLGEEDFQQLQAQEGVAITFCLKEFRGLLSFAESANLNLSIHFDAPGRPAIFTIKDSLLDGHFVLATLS

[10] = target: T10, WT Rad9A 134-266 (Homo sapiens, UniProt Q99638 134-266); settings: protein: recombinant; tags: N-terminal His; label: 5'-fluorescein (6-carboxyfluorescein) on HC40; blunt
T10 sequence: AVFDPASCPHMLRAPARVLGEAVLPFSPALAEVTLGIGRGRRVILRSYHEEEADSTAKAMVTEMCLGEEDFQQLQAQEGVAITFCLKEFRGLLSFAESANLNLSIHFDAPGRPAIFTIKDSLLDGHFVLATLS

[11] = target: T11, WT Rad9A 1-266 (Homo sapiens, UniProt Q99638 1-266); settings: protein: recombinant; tags: N-terminal His; label: 5'-fluorescein (6-carboxyfluorescein) on HC40; blunt
T11 sequence: T1 sequence with A11K, A15K, A22R

B1: HC40/HG40 (dsDNA)
DNA 1: CCGAGGAATTCGCCTTCTGCTCCATAGCCACTGGTTGTAG
DNA 2: CTACAACCAGTGGCTATGGAGCAGAAGGCGAATTCCTCGG
Kd [1]: 120 ± 30 nM
Kd [2]: 7790 ± 880 nM
Kd [3]: 1500 ± 400 nM
Kd [4]: 7740 ± 680 nM
Kd [5]: 1770 ± 790 nM
Kd [6]: 6400 ± 750 nM
Kd [7]: 1170 ± 690 nM
Kd [8]: 820 ± 150 nM
Kd [9]: 6120 ± 1270 nM
Kd [10]: 3000 ± 620 nM
Kd [11]: 50 ± 10 nM
